Experimental data as given in patent US20190185537A1 (AstraZeneca / MedImmune, published 2019).
Where “and” joins values, the source holds several entries; their conditions need not be identical. Equal entries are not always repeated. Numbered stars: 1 amine (or outer) side, 2 acyl side, 3 side chain; on linkers, the order of the positions; unused ones are H or OH. Side chains are listed from the residue outwards. Ends that are not written are not given here. * marks the point of attachment. γGlu = O=C(O)[C@H](CCC(=O)[*:2])N[*:1]; Palmitoyl = CCCCCCCCCCCCCCCC(=O)*

T1: human glucose-dependent insulinotropic peptide (gastric inhibitory polypeptide) receptor (human) (UniProt P48546)
T1 sequence (looked up): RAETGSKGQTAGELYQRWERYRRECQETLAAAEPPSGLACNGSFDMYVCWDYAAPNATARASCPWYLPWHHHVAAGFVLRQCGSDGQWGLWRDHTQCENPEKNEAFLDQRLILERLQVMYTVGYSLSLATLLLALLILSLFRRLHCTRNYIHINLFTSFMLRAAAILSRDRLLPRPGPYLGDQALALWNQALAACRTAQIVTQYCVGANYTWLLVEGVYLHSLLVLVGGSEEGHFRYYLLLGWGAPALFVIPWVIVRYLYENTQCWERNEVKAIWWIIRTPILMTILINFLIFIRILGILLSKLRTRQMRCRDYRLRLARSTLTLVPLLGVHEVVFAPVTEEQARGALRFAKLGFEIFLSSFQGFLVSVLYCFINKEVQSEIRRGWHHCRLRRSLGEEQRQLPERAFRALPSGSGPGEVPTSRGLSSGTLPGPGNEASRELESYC


Columns and labels:
Experiment in all cases: cell-based or functional assay
[1] = target: T1, human glucose-dependent insulinotropic peptide (gastric inhibitory polypeptide) receptor (human)
human GLP-1 receptor = human GLP-1 receptor (human, UniProt P43220 24-463)
Sequence of human GLP-1 receptor (P43220 24-463): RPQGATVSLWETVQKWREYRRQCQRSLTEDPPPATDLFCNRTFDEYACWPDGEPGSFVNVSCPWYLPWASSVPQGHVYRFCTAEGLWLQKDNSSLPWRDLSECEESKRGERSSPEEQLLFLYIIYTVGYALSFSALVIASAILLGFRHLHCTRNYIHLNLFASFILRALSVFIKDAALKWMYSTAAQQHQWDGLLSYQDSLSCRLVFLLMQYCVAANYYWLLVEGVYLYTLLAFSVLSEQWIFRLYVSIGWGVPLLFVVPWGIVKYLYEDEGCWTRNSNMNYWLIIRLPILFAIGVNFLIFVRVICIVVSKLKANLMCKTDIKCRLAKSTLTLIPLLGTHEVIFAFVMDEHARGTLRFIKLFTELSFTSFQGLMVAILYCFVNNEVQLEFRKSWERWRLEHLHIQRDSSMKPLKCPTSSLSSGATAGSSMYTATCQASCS

human glucagon receptor = human glucagon receptor (human, UniProt P47871 26-477)
Sequence of human glucagon receptor (P47871 26-477): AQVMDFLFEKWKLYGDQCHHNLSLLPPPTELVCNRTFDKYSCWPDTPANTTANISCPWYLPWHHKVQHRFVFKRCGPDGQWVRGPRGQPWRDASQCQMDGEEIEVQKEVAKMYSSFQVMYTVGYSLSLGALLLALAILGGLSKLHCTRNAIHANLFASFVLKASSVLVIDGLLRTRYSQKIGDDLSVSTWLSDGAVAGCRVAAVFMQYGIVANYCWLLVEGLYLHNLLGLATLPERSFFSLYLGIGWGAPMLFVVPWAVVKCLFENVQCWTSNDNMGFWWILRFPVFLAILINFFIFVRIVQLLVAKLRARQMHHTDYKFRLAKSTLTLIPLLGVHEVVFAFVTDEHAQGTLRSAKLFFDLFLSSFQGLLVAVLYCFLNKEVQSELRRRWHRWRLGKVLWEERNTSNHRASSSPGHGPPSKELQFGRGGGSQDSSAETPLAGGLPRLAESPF

Binder	cAMP EC50 (assay 1) [1]	cAMP EC50 (assay 1) (human GLP-1 receptor)	cAMP EC50 (assay 1) (human glucagon receptor)
HGQGTFTSDYSKYLDSK([γGlu-Palmitoyl])RARDFVEWLVAGG-NH2 (N-terminus assumed; SMILES CCCCCCCCCCCCCCCC(=O)N[C@@H](CCC(=O)NCCCC[C@H](NC(=O)[C@H](CO)NC(=O)[C@H](CC(=O)O)NC(=O)[C@H](CC(C)C)NC(=O)[C@H](Cc1ccc(O)cc1)NC(=O)[C@H](CCCCN)NC(=O)[C@H](CO)NC(=O)[C@H](Cc1ccc(O)cc1)NC(=O)[C@H](CC(=O)O)NC(=O)[C@H](CO)NC(=O)[C@@H](NC(=O)[C@H](Cc1ccccc1)NC(=O)[C@@H](NC(=O)CNC(=O)[C@H](CCC(N)=O)NC(=O)CNC(=O)[C@@H](N)Cc1c[nH]cn1)[C@@H](C)O)[C@@H](C)O)C(=O)N[C@@H](CCCNC(=N)N)C(=O)N[C@@H](C)C(=O)N[C@@H](CCCNC(=N)N)C(=O)N[C@@H](CC(=O)O)C(=O)N[C@@H](Cc1ccccc1)C(=O)N[C@H](C(=O)N[C@@H](CCC(=O)O)C(=O)N[C@@H](Cc1c[nH]c2ccccc12)C(=O)N[C@@H](CC(C)C)C(=O)N[C@H](C(=O)N[C@@H](C)C(=O)NCC(=O)NCC(N)=O)C(C)C)C(C)C)C(=O)O) [g660]	332 nM	1.06 nM	1.52 nM
HSQGTFTSDYSKYLDSK([γGlu-Palmitoyl])RAQDFVEWLVAGG-NH2 (N-terminus assumed; SMILES CCCCCCCCCCCCCCCC(=O)N[C@@H](CCC(=O)NCCCC[C@H](NC(=O)[C@H](CO)NC(=O)[C@H](CC(=O)O)NC(=O)[C@H](CC(C)C)NC(=O)[C@H](Cc1ccc(O)cc1)NC(=O)[C@H](CCCCN)NC(=O)[C@H](CO)NC(=O)[C@H](Cc1ccc(O)cc1)NC(=O)[C@H](CC(=O)O)NC(=O)[C@H](CO)NC(=O)[C@@H](NC(=O)[C@H](Cc1ccccc1)NC(=O)[C@@H](NC(=O)CNC(=O)[C@H](CCC(N)=O)NC(=O)[C@H](CO)NC(=O)[C@@H](N)Cc1c[nH]cn1)[C@@H](C)O)[C@@H](C)O)C(=O)N[C@@H](CCCNC(=N)N)C(=O)N[C@@H](C)C(=O)N[C@@H](CCC(N)=O)C(=O)N[C@@H](CC(=O)O)C(=O)N[C@@H](Cc1ccccc1)C(=O)N[C@H](C(=O)N[C@@H](CCC(=O)O)C(=O)N[C@@H](Cc1c[nH]c2ccccc12)C(=O)N[C@@H](CC(C)C)C(=O)N[C@H](C(=O)N[C@@H](C)C(=O)NCC(=O)NCC(N)=O)C(C)C)C(C)C)C(=O)O) [g600]	82.8 nM and 124 nM	0.0666 nM	0.00547 nM
HGQGTFTSDYSKYLDSK([γGlu-Palmitoyl])RAEDFVEWLVAGG-NH2 (N-terminus assumed; SMILES CCCCCCCCCCCCCCCC(=O)N[C@@H](CCC(=O)NCCCC[C@H](NC(=O)[C@H](CO)NC(=O)[C@H](CC(=O)O)NC(=O)[C@H](CC(C)C)NC(=O)[C@H](Cc1ccc(O)cc1)NC(=O)[C@H](CCCCN)NC(=O)[C@H](CO)NC(=O)[C@H](Cc1ccc(O)cc1)NC(=O)[C@H](CC(=O)O)NC(=O)[C@H](CO)NC(=O)[C@@H](NC(=O)[C@H](Cc1ccccc1)NC(=O)[C@@H](NC(=O)CNC(=O)[C@H](CCC(N)=O)NC(=O)CNC(=O)[C@@H](N)Cc1c[nH]cn1)[C@@H](C)O)[C@@H](C)O)C(=O)N[C@@H](CCCNC(=N)N)C(=O)N[C@@H](C)C(=O)N[C@@H](CCC(=O)O)C(=O)N[C@@H](CC(=O)O)C(=O)N[C@@H](Cc1ccccc1)C(=O)N[C@H](C(=O)N[C@@H](CCC(=O)O)C(=O)N[C@@H](Cc1c[nH]c2ccccc12)C(=O)N[C@@H](CC(C)C)C(=O)N[C@H](C(=O)N[C@@H](C)C(=O)NCC(=O)NCC(N)=O)C(C)C)C(C)C)C(=O)O) [g680]	96.7 nM	0.195 nM	3.68 nM
HGEGTFTSDYSKYLDSK([γGlu-Palmitoyl])RAEDFVEWLVAGG-NH2 (N-terminus assumed; SMILES CCCCCCCCCCCCCCCC(=O)N[C@@H](CCC(=O)NCCCC[C@H](NC(=O)[C@H](CO)NC(=O)[C@H](CC(=O)O)NC(=O)[C@H](CC(C)C)NC(=O)[C@H](Cc1ccc(O)cc1)NC(=O)[C@H](CCCCN)NC(=O)[C@H](CO)NC(=O)[C@H](Cc1ccc(O)cc1)NC(=O)[C@H](CC(=O)O)NC(=O)[C@H](CO)NC(=O)[C@@H](NC(=O)[C@H](Cc1ccccc1)NC(=O)[C@@H](NC(=O)CNC(=O)[C@H](CCC(=O)O)NC(=O)CNC(=O)[C@@H](N)Cc1c[nH]cn1)[C@@H](C)O)[C@@H](C)O)C(=O)N[C@@H](CCCNC(=N)N)C(=O)N[C@@H](C)C(=O)N[C@@H](CCC(=O)O)C(=O)N[C@@H](CC(=O)O)C(=O)N[C@@H](Cc1ccccc1)C(=O)N[C@H](C(=O)N[C@@H](CCC(=O)O)C(=O)N[C@@H](Cc1c[nH]c2ccccc12)C(=O)N[C@@H](CC(C)C)C(=O)N[C@H](C(=O)N[C@@H](C)C(=O)NCC(=O)NCC(N)=O)C(C)C)C(C)C)C(=O)O) [g681]	124 nM	0.283 nM	39.9 nM

Other lines, results leading:

cAMP EC50 (assay 1) [1]	cAMP EC50 (assay 1) (human GLP-1 receptor)	cAMP EC50 (assay 1) (human glucagon receptor)	Binder
47.9 nM	0.0702 nM	0.00465 nM	HSQGTFTSDYSKYLDSK([γGlu-Palmitoyl])RARDFVEWLVAGG-NH2 (N-terminus assumed; SMILES CCCCCCCCCCCCCCCC(=O)N[C@@H](CCC(=O)NCCCC[C@H](NC(=O)[C@H](CO)NC(=O)[C@H](CC(=O)O)NC(=O)[C@H](CC(C)C)NC(=O)[C@H](Cc1ccc(O)cc1)NC(=O)[C@H](CCCCN)NC(=O)[C@H](CO)NC(=O)[C@H](Cc1ccc(O)cc1)NC(=O)[C@H](CC(=O)O)NC(=O)[C@H](CO)NC(=O)[C@@H](NC(=O)[C@H](Cc1ccccc1)NC(=O)[C@@H](NC(=O)CNC(=O)[C@H](CCC(N)=O)NC(=O)[C@H](CO)NC(=O)[C@@H](N)Cc1c[nH]cn1)[C@@H](C)O)[C@@H](C)O)C(=O)N[C@@H](CCCNC(=N)N)C(=O)N[C@@H](C)C(=O)N[C@@H](CCCNC(=N)N)C(=O)N[C@@H](CC(=O)O)C(=O)N[C@@H](Cc1ccccc1)C(=O)N[C@H](C(=O)N[C@@H](CCC(=O)O)C(=O)N[C@@H](Cc1c[nH]c2ccccc12)C(=O)N[C@@H](CC(C)C)C(=O)N[C@H](C(=O)N[C@@H](C)C(=O)NCC(=O)NCC(N)=O)C(C)C)C(C)C)C(=O)O) [g776]
82.1 nM	0.244 nM	82.1 nM	HSEGTFTSDYSKYLDSK([γGlu-Palmitoyl])RAEDFVEWLVAGG-NH2 (N-terminus assumed; SMILES CCCCCCCCCCCCCCCC(=O)N[C@@H](CCC(=O)NCCCC[C@H](NC(=O)[C@H](CO)NC(=O)[C@H](CC(=O)O)NC(=O)[C@H](CC(C)C)NC(=O)[C@H](Cc1ccc(O)cc1)NC(=O)[C@H](CCCCN)NC(=O)[C@H](CO)NC(=O)[C@H](Cc1ccc(O)cc1)NC(=O)[C@H](CC(=O)O)NC(=O)[C@H](CO)NC(=O)[C@@H](NC(=O)[C@H](Cc1ccccc1)NC(=O)[C@@H](NC(=O)CNC(=O)[C@H](CCC(=O)O)NC(=O)[C@H](CO)NC(=O)[C@@H](N)Cc1c[nH]cn1)[C@@H](C)O)[C@@H](C)O)C(=O)N[C@@H](CCCNC(=N)N)C(=O)N[C@@H](C)C(=O)N[C@@H](CCC(=O)O)C(=O)N[C@@H](CC(=O)O)C(=O)N[C@@H](Cc1ccccc1)C(=O)N[C@H](C(=O)N[C@@H](CCC(=O)O)C(=O)N[C@@H](Cc1c[nH]c2ccccc12)C(=O)N[C@@H](CC(C)C)C(=O)N[C@H](C(=O)N[C@@H](C)C(=O)NCC(=O)NCC(N)=O)C(C)C)C(C)C)C(=O)O) [g639]
97.2 nM	0.191 nM	0.424 nM	HSQGTFTSDYSEYLDSK([γGlu-Palmitoyl])RARDFVEWLVAGG-NH2 (N-terminus assumed; SMILES CCCCCCCCCCCCCCCC(=O)N[C@@H](CCC(=O)NCCCC[C@H](NC(=O)[C@H](CO)NC(=O)[C@H](CC(=O)O)NC(=O)[C@H](CC(C)C)NC(=O)[C@H](Cc1ccc(O)cc1)NC(=O)[C@H](CCC(=O)O)NC(=O)[C@H](CO)NC(=O)[C@H](Cc1ccc(O)cc1)NC(=O)[C@H](CC(=O)O)NC(=O)[C@H](CO)NC(=O)[C@@H](NC(=O)[C@H](Cc1ccccc1)NC(=O)[C@@H](NC(=O)CNC(=O)[C@H](CCC(N)=O)NC(=O)[C@H](CO)NC(=O)[C@@H](N)Cc1c[nH]cn1)[C@@H](C)O)[C@@H](C)O)C(=O)N[C@@H](CCCNC(=N)N)C(=O)N[C@@H](C)C(=O)N[C@@H](CCCNC(=N)N)C(=O)N[C@@H](CC(=O)O)C(=O)N[C@@H](Cc1ccccc1)C(=O)N[C@H](C(=O)N[C@@H](CCC(=O)O)C(=O)N[C@@H](Cc1c[nH]c2ccccc12)C(=O)N[C@@H](CC(C)C)C(=O)N[C@H](C(=O)N[C@@H](C)C(=O)NCC(=O)NCC(N)=O)C(C)C)C(C)C)C(=O)O) [g835]
